# Laboratory results: the Human Domainome abundance scans (Beltran et al. 2025)
# ± gives the uncertainty stated by the source.
# B1: Transcription intermediary factor 1-beta, residues 620 to 671; numbered along this chain, Q13263 (parent)
# chain: TLDDSATICRVCQKPGDLVMCNQCEFCFHLDCHLPALQDVPGEEWSCSLCHV
# Variants of: B1
# Assay: abundance fitness (aPCA) (normalised: wild type 0, dead -1); higher = more abundant; growth selection in yeast, the domain comes from the species named
# Conditions: Homo sapiens
row,Variant,abundance fitness
1,C32Q,-0.904 ± 0.26
2,C32R,-0.704 ± 0.11
3,C32S,-0.507 ± 0.13
4,C32T,-0.937 ± 0.18
5,C32V,-1.03 ± 0.17
6,C32W,-0.923 ± 0.18
7,C32Y,-0.45 ± 0.15
8,H33A,-0.013 ± 0.1
9,H33C,0.217 ± 0.14
10,H33D,0.086 ± 0.12
11,H33E,0.2 ± 0.15
12,H33G,-0.159 ± 0.083
13,H33I,-0.325 ± 0.23
14,H33K,-0.218 ± 0.17
15,H33L,-0.117 ± 0.098
16,H33M,-0.205 ± 0.15
17,H33N,-0.139 ± 0.17
18,H33P,-0.344 ± 0.14
19,H33Q,0.042 ± 0.15
20,H33R,-0.109 ± 0.095
21,H33S,0.012 ± 0.1
22,H33T,-0.235 ± 0.14
23,H33V,0.033 ± 0.098
24,H33W,-0.444 ± 0.13

row,Variant,abundance fitness
1,H33Y,-0.294 ± 0.14
2,L34A,0.164 ± 0.13
3,L34C,0.274 ± 0.094
4,L34D,0.325 ± 0.14
5,L34E,0.188 ± 0.13
6,L34F,0.03 ± 0.15
7,L34G,0.098 ± 0.08
8,L34H,0.157 ± 0.17
9,L34I,-0.305 ± 0.17
10,L34K,0.13 ± 0.15
11,L34N,0.543 ± 0.15
12,L34P,0.036 ± 0.18
13,L34Q,0.05 ± 0.15
14,L34S,0.283 ± 0.093
15,L34T,-0.065 ± 0.17
16,L34V,0.062 ± 0.095
17,L34W,-0.328 ± 0.11
18,L34Y,0.062 ± 0.15
19,P35A,-0.553 ± 0.12
20,P35D,-0.447 ± 0.14
21,P35E,-0.447 ± 0.12
22,P35F,-0.637 ± 0.17
23,P35G,-0.244 ± 0.096
24,P35H,-0.431 ± 0.23

row,Variant,abundance fitness
1,P35K,-0.18 ± 0.16
2,P35L,-0.508 ± 0.12
3,P35M,-0.291 ± 0.15
4,P35N,-0.222 ± 0.17
5,P35Q,-0.698 ± 0.2
6,P35R,-0.488 ± 0.11
7,P35S,-0.128 ± 0.1
8,P35T,-0.552 ± 0.16
9,P35V,-0.458 ± 0.088
10,P35W,-0.799 ± 0.14
11,A36C,-0.713 ± 0.18
12,A36D,-0.394 ± 0.16
13,A36E,0.034 ± 0.13
14,A36G,-0.116 ± 0.087
15,A36H,-0.168 ± 0.19
16,A36I,-0.449 ± 0.19
17,A36K,-0.183 ± 0.15
18,A36L,-0.173 ± 0.11
19,A36N,-0.384 ± 0.31
20,A36P,0.077 ± 0.15
21,A36Q,-0.633 ± 0.32
22,A36R,0.058 ± 0.11
23,A36S,0.079 ± 0.11
24,A36T,-0.161 ± 0.17

row,Variant,abundance fitness
1,A36V,0.06 ± 0.093
2,A36W,-0.527 ± 0.17
3,A36Y,-0.499 ± 0.2
4,L37C,-0.021 ± 0.12
5,L37D,-0.278 ± 0.21
6,L37E,-0.499 ± 0.17
7,L37F,-0.344 ± 0.2
8,L37H,-0.215 ± 0.24
9,L37K,-0.421 ± 0.2
10,L37M,-0.083 ± 0.14
11,L37N,-0.334 ± 0.35
12,L37P,-0.138 ± 0.14
13,L37Q,-0.108 ± 0.17
14,L37R,-0.106 ± 0.096
15,L37S,-0.071 ± 0.11
16,L37T,0.035 ± 0.14
17,L37V,-0.094 ± 0.096
18,L37W,0.118 ± 0.13
19,L37Y,-0.27 ± 0.18
20,Q38A,-0.02 ± 0.1
21,Q38C,-0.401 ± 0.16
22,Q38E,-0.434 ± 0.16
23,Q38F,-0.39 ± 0.14
24,Q38G,-0.181 ± 0.1

row,Variant,abundance fitness
1,Q38H,-0.279 ± 0.2
2,Q38I,0.079 ± 0.15
3,Q38K,-0.18 ± 0.17
4,Q38L,-0.227 ± 0.09
5,Q38M,-0.443 ± 0.15
6,Q38N,0.082 ± 0.2
7,Q38P,-0.437 ± 0.15
8,Q38R,0.023 ± 0.091
9,Q38S,-0.295 ± 0.099
10,Q38T,-0.345 ± 0.13
11,Q38V,-0.132 ± 0.099
12,Q38W,-0.482 ± 0.12
13,Q38Y,-0.417 ± 0.17
14,D39A,-0.175 ± 0.16
15,D39C,-0.212 ± 0.15
16,D39E,0.287 ± 0.16
17,D39F,-0.214 ± 0.17
18,D39G,-0.235 ± 0.098
19,D39H,-0.268 ± 0.21
20,D39I,-0.121 ± 0.16
21,D39K,-0.272 ± 0.21
22,D39M,-0.24 ± 0.14
23,D39N,-0.551 ± 0.27
24,D39Q,-0.184 ± 0.17

row,Variant,abundance fitness
1,D39R,-0.222 ± 0.1
2,D39S,-0.227 ± 0.12
3,D39T,-0.089 ± 0.19
4,D39V,0.026 ± 0.099
5,D39W,-0.545 ± 0.14
6,D39Y,-0.206 ± 0.17
7,V40A,-0.323 ± 0.14
8,V40C,-0.401 ± 0.17
9,V40D,-0.02 ± 0.15
10,V40E,-0.403 ± 0.17
11,V40F,0.01 ± 0.12
12,V40G,-0.301 ± 0.1
13,V40H,-0.361 ± 0.24
14,V40I,-0.401 ± 0.23
15,V40K,-0.221 ± 0.35
16,V40L,-0.221 ± 0.11
17,V40M,-0.213 ± 0.22
18,V40N,-0.218 ± 0.2
19,V40P,0.264 ± 0.19
20,V40Q,-0.383 ± 0.21
21,V40R,0.166 ± 0.098
22,V40S,-0.121 ± 0.11
23,V40W,-0.101 ± 0.14
24,V40Y,-0.121 ± 0.22

row,Variant,abundance fitness
1,P41A,-0.368 ± 0.13
2,P41C,-0.242 ± 0.14
3,P41D,-0.245 ± 0.21
4,P41E,-0.073 ± 0.14
5,P41F,-0.439 ± 0.15
6,P41G,-0.202 ± 0.11
7,P41H,-0.513 ± 0.18
8,P41I,-0.302 ± 0.18
9,P41K,-0.645 ± 0.25
10,P41M,-0.303 ± 0.16
11,P41N,-0.112 ± 0.17
12,P41Q,-0.204 ± 0.17
13,P41R,-0.26 ± 0.096
14,P41S,-0.374 ± 0.14
15,P41T,-0.619 ± 0.22
16,P41V,-0.254 ± 0.11
17,P41W,-0.258 ± 0.2
18,G42A,0.014 ± 0.085
19,G42C,-0.222 ± 0.16
20,G42E,-0.139 ± 0.15
21,G42F,-0.161 ± 0.22
22,G42H,0.083 ± 0.24
23,G42K,0.095 ± 0.16
